These results are taken from patent US20120219559A1 (Johns Hopkins, published 2012).

Where two headings read alike, the source gives them in different places.

Test [1] deals with T1, B7-H2 (Y51A) mutant, full length with C terminal GFP tag, on 293T cells (human, UniProt O75144 19-302, The C-terminal GFP reporter is not carried in the letters.).
T1 construct: not shown: C-terminal GFP tag and any linker to it
T1 sequence: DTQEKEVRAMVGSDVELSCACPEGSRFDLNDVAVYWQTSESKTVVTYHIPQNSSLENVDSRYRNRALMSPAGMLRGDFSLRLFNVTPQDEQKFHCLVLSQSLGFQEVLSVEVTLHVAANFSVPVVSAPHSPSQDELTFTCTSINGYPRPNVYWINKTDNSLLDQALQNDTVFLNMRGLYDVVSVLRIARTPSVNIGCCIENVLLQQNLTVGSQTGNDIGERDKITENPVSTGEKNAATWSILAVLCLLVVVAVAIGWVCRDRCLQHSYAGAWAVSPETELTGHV
In words: flow cytometry; ICOSIg binding to 293T cells expressing the mutant. From the text:
(§1) These residues were all converted to alanine, a small […] amino acid with neutral charge, to avoid a large overall structure modulation (16).
On the technique in general: A flow cytometer gives signals particle by particle.

In test [2] the target is T2, B7-H2 (Y53A) mutant, full length with C terminal GFP tag, on 293T cells (human, UniProt O75144 19-302, The C-terminal GFP reporter is not carried in the letters.).
T2 construct: not shown: C-terminal GFP tag and any linker to it
T2 sequence: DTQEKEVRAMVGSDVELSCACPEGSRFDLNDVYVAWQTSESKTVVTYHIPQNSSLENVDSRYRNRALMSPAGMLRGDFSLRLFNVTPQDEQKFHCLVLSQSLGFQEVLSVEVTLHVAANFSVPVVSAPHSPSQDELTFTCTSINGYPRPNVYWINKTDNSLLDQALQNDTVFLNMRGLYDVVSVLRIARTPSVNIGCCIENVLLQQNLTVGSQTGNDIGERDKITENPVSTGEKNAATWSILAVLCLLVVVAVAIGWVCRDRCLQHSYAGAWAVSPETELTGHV
The test is described as above.
Excerpt: as §1

Test [3] addresses T3, human B7-H2Ig fusion protein (human, UniProt O75144 19-258).
T3 construct: Ig (Fc) part not given
T3 sequence: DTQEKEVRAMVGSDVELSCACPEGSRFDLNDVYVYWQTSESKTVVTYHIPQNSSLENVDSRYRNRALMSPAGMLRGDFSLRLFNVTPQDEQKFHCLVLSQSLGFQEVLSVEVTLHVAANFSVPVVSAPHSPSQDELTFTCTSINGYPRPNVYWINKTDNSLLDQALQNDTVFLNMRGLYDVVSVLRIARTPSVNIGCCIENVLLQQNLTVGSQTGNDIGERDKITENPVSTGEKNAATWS
Description: SPR (BIAcore 3000), ICOSIg injected over B7-H2Ig coupled at 500 RU, 1:1 fit. The protocol: (§2) Protein interactions were measured and analyzed on a BIAcore 3000 instrument (BIAcore AB, Uppsala, Sweden) performed at 25° C. as described previously (3). […] Hepes, pH 7.4, containing 0.15 M NaCl, 0.005% surfactant P20 (HBS) was used as running buffer. […] All other reagents were purchased from BIAcore. […] The remaining activated carboxyl groups were blocked with 1 M ethanolamine (pH 8.5). Subsequently, the flow cells were extensively washed with HBS to generate a stable baseline. […] The flow cells were regenerated by two consecutive 10-second pulse with 10 mM NaOH. Data was analyzed by BIAevaluation software 4.1 (BIAcore).
On the technique in general: In SPR one partner is held on a chip, and binding of the other changes the refractive index at the surface.

Test [4] concerns the target T3, human B7-H2Ig fusion protein. Described as above. As for the experimental part:
(§3) For all experiments, the same fusion proteins were injected into uncoated control flow cells to serve as the control. Binding data was overlaid with the fit of 1:1 interaction model.
as §2, with “Surface Plasmon Resonance. Protein” for “Protein”, “20.” for “(3).”, “pulses” for “pulse”
This is another data set of the same source.

Test [5] has the same target. In words: SPR (BIAcore 3000); ICOSIg injected over B7-H2Ig coupled to a CM5 chip; 1:1 interaction model. The protocol: as §3
as §2, with “Surface Plasmon Resonance. Protein” for “Protein”, “20.” for “(3).”, “pulses” for “pulse”

For orientation: Kd means the concentration at which binding is half-saturated. The low end stands for higher affinity, the high end for lower affinity. As usually defined, the koff is the first-order rate constant of dissociation. Higher therefore signals fast dissociation. The term kon denotes a measure of how fast the partners come together. A lower kon goes with slow association.

B1: human ICOSIg fusion protein (Fc fusion)
chain: EINGSANYEMFIFHNGGVQILCKYPDIVQQFKMQLLKGGQILCDLTKTKGSGNTVSIKSLKFCHSQLSNNSVSFFLYNLDHSHANYYFCNLSIFDPPPFKVTLTGGYLHIYESQLCCQLKF
notes: Bought from R&D Systems; Ig (Fc) part not given
Consider B1, for which the binding result in test [1] and in test [2] was “no binding” each time. In addition, the Kd in test [3] and in test [4] was 16 nM each time. The same molecule yielded a koff in test [5] of 0.004 s⁻¹. In test [5], this molecule returned a kon of 240000 M⁻¹ s⁻¹.
